Tests used:
[1] = tested on: Rev (C64) (HIV-1, SBBC subject C64); test: EMSA; details: 10 mM HEPES/KOH pH 7.6, 150 mM KCl, 2 mM MgCl2, 0.5 mM EGTA, 1 mM DTT, 20% glycerol, 3.2 ug E. coli tRNA in 10 ul; excess RNA, protein 0-0.50 uM; 10 min on …
[2] = tested on: Rev (D36) (HIV-1, SBBC subject D36); test: EMSA; details: 10 mM HEPES/KOH pH 7.6, 150 mM KCl, 2 mM MgCl2, 0.5 mM EGTA, 1 mM DTT, 20% glycerol, 3.2 ug E. coli tRNA in 10 ul; excess RNA, protein 0-0.50 uM; 10 min on …

Which binding signal (% reduction vs NL4-3 Rev) [1] does the source give for RRE riboprobe here?
The binding signal (% reduction vs NL4-3 Rev) was 90.

What about the binding signal (% reduction vs NL4-3 Rev) [2] of the same substance?
The binding signal (% reduction vs NL4-3 Rev) was 90.

— paper PMC1933581
